Experimental data reported in patent publication US20200157217A1 (SYSTIMMUNE, published 2020).
Changes are numbered by the printed parent chain. Read-outs that look alike come from different tables or passages of the source.

Columns and labels:
[1] = target: Cyno T cell line; assay: FACS, B cell culture supernatant on the cynomolgus T cell line (HSC-F per paragraph 87)
[2] = target: T1, human CD3 Delta/Epsilon Fc fusion protein (human, UniProt P04234 22-105; P07766 23-126); assay: Octet (bio-layer interferometry), bivalent kdis
T1 construct: Construct limits and Fc are not described; also called Human CD3 Delta-Epsilon Fc ("Knobs-into-hole"-KnH)

[3] = target: T2, human CD3 Gamma/Epsilon Fc fusion protein (human, UniProt P09693 23-116; P07766 23-126); assay: Octet (bio-layer interferometry), bivalent kdis; antigen printed 'Human δ/γ - Fc', taken as the Gamma/Epsilon Fc that paragraph 95 names for FIG. 8
T2 construct: Construct limits and Fc are not described; also called Gamma-Epsilon Fc (KnH)

[4] = target: T2, human CD3 Gamma/Epsilon Fc fusion …; assay: Octet (bio-layer interferometry), bivalent kdis; antigen printed 'Epsilon-Gamma', taken as the human Gamma/Epsilon Fc that paragraph 95 names for FIG. 8
[5] = target: T3, human CD3 (Delta, Gamma, Epsilon) on the human T cell line Jurkat or on purified human CD3+ T cells (human, UniProt P07766 23-207; P09693 23-182; P04234 22-171); assay: FACS, antibody titration on Jurkat cells
T3 construct: whole, on cells; On cells CD3 sits in the TCR complex

[6] = target: T3, human CD3 (Delta, Gamma, Epsilon) on …; assay: FACS, antibody titration on Jurkat cells; remark: listed apart in the source

T2 sequence (P09693 23-116, chain 1 of 2): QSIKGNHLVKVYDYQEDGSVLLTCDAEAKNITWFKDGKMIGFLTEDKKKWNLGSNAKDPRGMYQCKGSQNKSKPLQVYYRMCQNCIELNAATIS
T2 sequence (P07766 23-126, chain 2 of 2): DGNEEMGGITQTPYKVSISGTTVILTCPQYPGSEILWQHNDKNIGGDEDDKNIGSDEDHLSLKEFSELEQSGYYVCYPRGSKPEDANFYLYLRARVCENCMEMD
T1 sequence (P04234 22-105, stated change not applied, chain 1 of 2): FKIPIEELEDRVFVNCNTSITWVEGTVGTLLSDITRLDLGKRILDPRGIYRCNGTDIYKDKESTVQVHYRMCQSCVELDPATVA
T1 sequence (P07766 23-126, stated change not applied, chain 2 of 2): as the sequence (P07766 23-126, chain 2 of 2) above
T3 sequence (P07766 23-207, stated change not applied, chain 1 of 3): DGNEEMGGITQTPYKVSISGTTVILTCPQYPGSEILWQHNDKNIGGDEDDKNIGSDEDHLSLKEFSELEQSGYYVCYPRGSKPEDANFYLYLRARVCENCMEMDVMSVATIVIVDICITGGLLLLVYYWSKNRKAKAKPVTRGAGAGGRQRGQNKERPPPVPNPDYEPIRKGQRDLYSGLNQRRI
T3 sequence (P09693 23-182, stated change not applied, chain 2 of 3): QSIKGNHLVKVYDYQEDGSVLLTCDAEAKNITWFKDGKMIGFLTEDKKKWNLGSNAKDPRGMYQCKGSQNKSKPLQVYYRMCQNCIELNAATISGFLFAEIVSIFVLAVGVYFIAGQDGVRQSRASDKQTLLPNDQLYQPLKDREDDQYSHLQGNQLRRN
T3 sequence (P04234 22-171, stated change not applied, chain 3 of 3): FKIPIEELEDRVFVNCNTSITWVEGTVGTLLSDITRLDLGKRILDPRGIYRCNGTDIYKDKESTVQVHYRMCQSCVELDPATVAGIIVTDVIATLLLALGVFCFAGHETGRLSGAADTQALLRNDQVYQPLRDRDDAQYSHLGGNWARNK

B1: 284A10 (antibody, V domains shown)
VH: QSLEESGGRLVTPGTPLTLTCTVSGFTISTNAMSWVRQVPGKGLEWIGVITGRDITYYASWAKGRFTISKTSSTTVDLKMTSLTAEDSATYFCARDGGSSAITSNNIWGPGTLVTVSS
VL: DVVMTQTPPSVSAAVGGTVTIKCQASESISSWLAWYQQKPGQPPKLLIYEASKLASGVPSRFSGSGSGTEFTLTISDLECADAATYYCQGYFYFISRTYVNSFGGGTEVEFK
MFI [1]: 615 MFI

B2: 299F6 chimeric rabbit/human IgG antibody (antibody, V domains shown)
VH: B1 VH with T30S, V39A, S60N
VL: DVVMTQTPSSVSAAVGGTVTINCQASESISSWLAWYQQKPGQPPKLLIYEASKLASGVPSRFSGSGSGTEFTLTISDLECADAATYYCQGYFYFISRSYVNAFGGGTEVVFKR
koff [2]: 0.00049 s⁻¹
koff [3]: 0.00045 s⁻¹

B3: 295E9 (antibody, V domains shown)
VH: B1 VH with F26I, T27D, I28L, T30S, V39A, T56N, N105K
VL: B1 VL with P9A, S12E, K22N, K39R, S63K, T98S, S102A, E110V, F111V
MFI [1]: 549 MFI

B4: 480A7 chimeric rabbit/human IgG antibody (antibody, V domains shown)
VH: B1 VH with F26I, T27D, I28L, T30S, V39A, N105K
VL: B2 VL with S9A, S12E, K39R
koff [4]: 0.0006 s⁻¹
binding result [5]: binds
koff [2]: 0.00066 s⁻¹

B5: 284A10 chimeric rabbit/human IgG antibody (antibody, V domains shown)
VH: B1 VH
VL: B2 VL with S9P, N22K, S98T, A102S, V110E
koff [2]: 0.0005 s⁻¹
koff [3]: 0.0013 s⁻¹

B6: 480C8 chimeric rabbit/human IgG antibody (antibody, V domains shown)
VH: B1 VH with F26I, T27D, I28L, T30S, V39A, T103N, N105K, P110Q
VL: B2 VL with S98T, V110E
notes: also called 48008
koff [2]: 0.00042 s⁻¹
binding result [6]: binds
koff [3]: 0.00054 s⁻¹

B7: 295E9 chimeric rabbit/human IgG antibody (antibody, V domains shown)
VH: B1 VH with F26I, T27D, I28L, T30S, V39A, T56N, N105K
VL: B2 VL with S9A, S12E, K39R, S63K, F111V
koff [2]: 0.0052 s⁻¹
koff [3]: 0.0052 s⁻¹

B8: 299F6 1.1 (antibody, human IgG1, kappa, V domains shown)
VH: EVQLVESGGGLVQPGGSLRLSCAASGFTISSNAMSWVRQAPGKGLEWIGVITGRDITYYANWAKGRFTISRDNSKNTLYLQMNSLRAEDTAVYYCARDGGSSAITSNNIWGQGTLVTVSS
VL: DIQMTQSPSTLSASVGDRVTITCQASESISSWLAWYQQKPGKAPKLLIYEASKLASGVPSRFSGSGSGTEFTLTISSLQPDDFATYYCQGYFYFISRSYVNAFGGGTKVEIKR
notes: sheet: mAb '299F6 1.1', format 'humanized'; also called 299F6 humanized
koff [2]: 0.0006 s⁻¹

B9: 284A10 1.1 (antibody, human IgG1, kappa, V domains shown)
VH: B8 VH with S31T, N61S
VL: B8 VL with I2V, Q3V, T22N, S98T, A102S
notes: sheet: mAb '284A10 1.1', format 'humanized'; also called 284A10 humanized
koff [2]: 0.00053 s⁻¹

B10: 480C8 1.1 (antibody, human IgG1, kappa, V domains shown)
VH: B8 VH with F27I, T28D, I29L, N61S, T105N, N107K
VL: B8 VL with S98T
notes: sheet: mAb '480C8 1.1', format 'humanized'; also called 480C8 humanized
koff [2]: 0.0005 s⁻¹
